Measurements taken from paper PMC4822050 (2016).

T1: TTD of UHRF1 (residues 134–285) (human, UniProt Q96T88 134-285)
T1 chain: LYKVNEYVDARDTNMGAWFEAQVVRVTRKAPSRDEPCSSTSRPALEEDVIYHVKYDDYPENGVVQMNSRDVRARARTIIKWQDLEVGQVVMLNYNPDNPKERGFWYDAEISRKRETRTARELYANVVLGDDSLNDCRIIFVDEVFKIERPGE

T2: TTD–PHD of UHRF1 (residues 134–366) (human, UniProt Q96T88 134-366)
T2 chain: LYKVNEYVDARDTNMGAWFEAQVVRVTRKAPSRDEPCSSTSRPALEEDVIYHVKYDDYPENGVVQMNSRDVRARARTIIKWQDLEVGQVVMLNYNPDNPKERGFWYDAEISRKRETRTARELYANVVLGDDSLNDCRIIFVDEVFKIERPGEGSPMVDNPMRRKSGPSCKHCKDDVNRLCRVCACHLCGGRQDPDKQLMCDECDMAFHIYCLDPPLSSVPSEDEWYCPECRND

T3: R295D/R296D mutant of full-length UHRF1 (human, UniProt Q96T88 1-793, R295D | R296D)
T3 sequence: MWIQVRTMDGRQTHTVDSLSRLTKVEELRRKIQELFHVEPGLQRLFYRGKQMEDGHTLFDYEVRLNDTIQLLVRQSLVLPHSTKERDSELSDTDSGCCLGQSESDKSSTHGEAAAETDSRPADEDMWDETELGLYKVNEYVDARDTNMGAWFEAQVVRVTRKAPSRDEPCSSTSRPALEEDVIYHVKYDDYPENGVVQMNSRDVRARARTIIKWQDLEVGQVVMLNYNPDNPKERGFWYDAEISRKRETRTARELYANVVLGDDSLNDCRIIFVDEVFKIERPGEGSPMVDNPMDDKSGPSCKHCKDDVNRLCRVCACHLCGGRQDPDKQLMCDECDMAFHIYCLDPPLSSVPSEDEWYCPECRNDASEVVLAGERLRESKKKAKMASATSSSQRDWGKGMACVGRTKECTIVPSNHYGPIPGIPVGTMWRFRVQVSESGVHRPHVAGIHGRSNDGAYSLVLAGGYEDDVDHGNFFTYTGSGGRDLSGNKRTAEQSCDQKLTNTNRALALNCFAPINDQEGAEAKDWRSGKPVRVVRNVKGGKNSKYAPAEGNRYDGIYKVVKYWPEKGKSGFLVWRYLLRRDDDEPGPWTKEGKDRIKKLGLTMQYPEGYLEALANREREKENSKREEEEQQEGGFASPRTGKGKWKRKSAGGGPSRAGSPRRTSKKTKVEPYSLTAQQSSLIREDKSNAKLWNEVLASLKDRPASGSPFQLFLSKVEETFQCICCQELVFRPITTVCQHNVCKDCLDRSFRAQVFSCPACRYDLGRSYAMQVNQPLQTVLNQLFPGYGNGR

T4: UHRF1^Δ627–674 (human, UniProt Q96T88 1-793, Δ627–674)
T4 sequence: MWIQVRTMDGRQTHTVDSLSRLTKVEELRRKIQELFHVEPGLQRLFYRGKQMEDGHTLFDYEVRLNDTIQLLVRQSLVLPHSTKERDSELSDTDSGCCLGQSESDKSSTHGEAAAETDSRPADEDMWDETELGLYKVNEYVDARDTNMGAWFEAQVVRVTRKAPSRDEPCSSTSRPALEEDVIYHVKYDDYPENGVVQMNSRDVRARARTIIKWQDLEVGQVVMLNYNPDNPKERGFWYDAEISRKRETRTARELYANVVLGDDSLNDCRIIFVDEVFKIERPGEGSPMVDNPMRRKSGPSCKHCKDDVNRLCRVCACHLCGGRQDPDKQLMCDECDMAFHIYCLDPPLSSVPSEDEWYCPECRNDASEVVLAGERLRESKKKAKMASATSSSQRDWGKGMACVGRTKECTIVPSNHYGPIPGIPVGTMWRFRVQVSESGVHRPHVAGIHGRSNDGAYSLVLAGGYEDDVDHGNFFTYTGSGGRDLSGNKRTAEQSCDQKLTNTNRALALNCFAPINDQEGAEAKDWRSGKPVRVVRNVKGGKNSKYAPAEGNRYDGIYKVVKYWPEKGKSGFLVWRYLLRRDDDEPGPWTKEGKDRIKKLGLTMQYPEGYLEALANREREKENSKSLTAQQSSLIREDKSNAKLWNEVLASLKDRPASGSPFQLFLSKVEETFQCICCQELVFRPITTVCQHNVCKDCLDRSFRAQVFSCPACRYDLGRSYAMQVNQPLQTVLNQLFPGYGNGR

T5: PHD of UHRF1 (residues 307–366) (human, UniProt Q96T88 307-366)
T5 chain: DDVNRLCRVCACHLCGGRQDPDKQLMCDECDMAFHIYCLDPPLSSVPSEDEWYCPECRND

T6: PHD-SRA of UHRF1 (human)
T6 chain: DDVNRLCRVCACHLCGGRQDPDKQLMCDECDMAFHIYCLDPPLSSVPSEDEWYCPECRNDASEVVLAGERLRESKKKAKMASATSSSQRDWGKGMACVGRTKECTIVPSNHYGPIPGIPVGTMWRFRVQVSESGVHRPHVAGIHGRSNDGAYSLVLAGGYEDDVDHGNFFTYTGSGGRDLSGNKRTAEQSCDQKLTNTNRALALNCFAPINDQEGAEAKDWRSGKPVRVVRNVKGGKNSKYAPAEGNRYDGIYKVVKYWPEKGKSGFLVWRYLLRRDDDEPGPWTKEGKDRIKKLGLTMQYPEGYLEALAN


What was measured:
[1] = target: T1, TTD of UHRF1 (residues 134–285); test: ITC; in presence of SRA
[2] = target: T2, TTD–PHD of UHRF1 (residues 134–366); test: ITC; in presence of Spacer (1:2)
[3] = target: T1, TTD of UHRF1 (residues 134–285); test: ITC; in presence of Spacer K648D (1:2)
[4] = target: T1, TTD of UHRF1 (residues 134–285); test: ITC; in presence of Spacer S651D (1:2)
[5] = target: T2, TTD–PHD of UHRF1 (residues 134–366); test: ITC; in presence of Spacer (TTD-PHD/Spacer 1:2)
[6] = target: T3, R295D/R296D mutant of full-length UHRF1; test: ITC
[7] = target: T1, TTD of UHRF1 (residues 134–285); test: ITC; in presence of Spacer R649A (1:2)
UHRF1^Δ627–674 = target: T4, UHRF1^Δ627–674; test: ITC
[8] = target: T1, TTD of UHRF1 (residues 134–285); test: ITC
[9] = target: T5, PHD of UHRF1 (residues 307–366); test: ITC; in presence of SRA (1:1)
[10] = target: T5, PHD of UHRF1 (residues 307–366); test: ITC; in presence of SRA (PHD/SRA 1:2)
[11] = target: T5, PHD of UHRF1 (residues 307–366); test: ITC
[12] = target: T5, PHD of UHRF1 (residues 307–366); test: ITC; in presence of SRA (1:2)
PHD-SRA of UHRF1 = target: T6, PHD-SRA of UHRF1; test: ITC
[13] = target: T5, PHD of UHRF1 (residues 307–366); test: ITC; in presence of SRA (PHD/SRA 1:1)

Kd [1] | Kd [2] | Kd [3] | Kd [4] | Kd [5] | Kd [6] | Kd [7] | Kd (UHRF1^Δ627–674) | Kd [8] | Kd [9] | Kd [10] | Kd [11] | Kd [12] | Kd (PHD-SRA of UHRF1) | Kd [13] | Binder
0.88 µM | 1.63 µM | 6.58 µM | 1.28 µM | 1.63 µM | 36.8 µM | 2.89 µM | 1.19 µM | 0.99 µM |  |  |  |  |  |  | ARTKQTARKSTGGKAPR (trimethyl-lysine at K9) [H3K9me3 peptide (1–17)]
 |  |  |  |  |  |  |  |  | 2.04 µM | 4.64 µM | 0.77 µM | 4.64 µM | 5.79 µM | 2.04 µM | ARTKQTARKSTGGKAPR [H3 peptide (1–17)]
